# Data published in patent US20180155451A1 (published 2018).
# B1: GpH7-A5/GpH7-B3 variant K326_06M/GpL16-k0 (antibody, human IgG1, kappa)
# heavy 1: not shown
# heavy 2: not shown
# light: DIVMTQSPLSLPVTPGEPASISCQASESLVHSNRNTYLHWYLQKPGQSPQLLIYKVSNRFSGVPDRFSGSGSGTDFTLKISRVEAEDVGVYYCSQNTHVPPTFGQGTKVEIERTVAAPSVFIFPPSDEQLKSGTASVVCLLNNFYPREAKVQWKVDNALQSGNSQESVTEQDSKDSTYSLSSTLTLSKADYEKHKVYACEVTHQGLSSPVTKSFNRGEC
# notes: Heterodimerized IgG1; alteration in one H chain only; also called He Ab
# B2: GpH7-A5/GpH7-B3 variant L328_04F/GpL16-k0 (antibody, human IgG1, kappa)
# heavy 1: not shown
# heavy 2: not shown
# light: B1 light
# notes: as for B1
# B3: GpH7-A5/GpH7-B3 variant A327_20W/GpL16-k0 (antibody, human IgG1, kappa)
# heavy 1: not shown
# heavy 2: not shown
# light: B1 light
# notes: as for B1
# B4: GpH7-A5/GpH7-B3 variant N325_07I/GpL16-k0 (antibody, human IgG1, kappa)
# heavy 1: not shown
# heavy 2: not shown
# light: B1 light
# notes: as for B1
# B5: GpH7-A5/GpH7-B3 variant N325_13S/GpL16-k0 (antibody, human IgG1, kappa)
# heavy 1: not shown
# heavy 2: not shown
# light: B1 light
# notes: as for B1
# B6: GpH7-A5/GpH7-B3 variant L328_05P/GpL16-k0 (antibody, human IgG1, kappa)
# heavy 1: not shown
# heavy 2: not shown
# light: B1 light
# notes: as for B1
# B7: GpH7-A5/GpH7-B3 variant K326_07I/GpL16-k0 (antibody, human IgG1, kappa)
# heavy 1: not shown
# heavy 2: not shown
# light: B1 light
# notes: as for B1
# B8: GpH7-A5/GpH7-B3 variant A327_18N/GpL16-k0 (antibody, human IgG1, kappa)
# heavy 1: not shown
# heavy 2: not shown
# light: B1 light
# notes: as for B1
# B9: GpH7-A5/GpH7-B3 variant N325_02A/GpL16-k0 (antibody, human IgG1, kappa)
# heavy 1: not shown
# heavy 2: not shown
# light: B1 light
# notes: as for B1
# B10: GpH7-A5/GpH7-B3 variant N325_19Q/GpL16-k0 (antibody, human IgG1, kappa)
# heavy 1: not shown
# heavy 2: not shown
# light: B1 light
# notes: as for B1
# B11: GpH7-A5/GpH7-B3 variant K326_19Q/GpL16-k0 (antibody, human IgG1, kappa)
# heavy 1: not shown
# heavy 2: not shown
# light: B1 light
# notes: as for B1
# B12: GpH7-A5/GpH7-B3 variant S298_08L/GpL16-k0 (antibody, human IgG1, kappa)
# heavy 1: not shown
# heavy 2: not shown
# light: B1 light
# notes: as for B1
# B13: GpH7-A5/GpH7-B3 variant N325_11K/GpL16-k0 (antibody, human IgG1, kappa)
# heavy 1: not shown
# heavy 2: not shown
# light: B1 light
# notes: as for B1
# B14: GpH7-A5/GpH7-B3 variant N325_06M/GpL16-k0 (antibody, human IgG1, kappa)
# heavy 1: not shown
# heavy 2: not shown
# light: B1 light
# notes: as for B1
# B15: GpH7-A5/GpH7-B3 variant P271_09D/GpL16-k0 (antibody, human IgG1, kappa)
# heavy 1: not shown
# heavy 2: not shown
# light: B1 light
# notes: as for B1
# B16: GpH7-A5/GpH7-B3 variant N325_09D/GpL16-k0 (antibody, human IgG1, kappa)
# heavy 1: not shown
# heavy 2: not shown
# light: B1 light
# notes: as for B1
# B17: GpH7-A5/GpH7-B3 variant P271_14T/GpL16-k0 (antibody, human IgG1, kappa)
# heavy 1: not shown
# heavy 2: not shown
# light: B1 light
# notes: as for B1
# B18: GpH7-A5/GpH7-B3 variant K326_10E/GpL16-k0 (antibody, human IgG1, kappa)
# heavy 1: not shown
# heavy 2: not shown
# light: B1 light
# notes: as for B1
# B19: GpH7-A5/GpH7-B3 variant K326_09D/GpL16-k0 (antibody, human IgG1, kappa)
# heavy 1: not shown
# heavy 2: not shown
# light: B1 light
# notes: as for B1
# Target: T1, FcγRIIb extracellular domain with C-terminal His tag (human, UniProt P31994 43-217)
# T1 construct: extracellular domain; also called FcgRIIb; 2b; not shown: His tag attached to the C terminus
# T1 sequence (looked up): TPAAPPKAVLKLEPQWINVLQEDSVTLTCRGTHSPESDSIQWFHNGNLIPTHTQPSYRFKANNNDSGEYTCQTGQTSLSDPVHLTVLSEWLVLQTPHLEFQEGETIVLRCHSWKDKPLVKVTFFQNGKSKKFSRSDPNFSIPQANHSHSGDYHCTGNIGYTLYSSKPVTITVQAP
# Test: SPR (Biacore), relative binding
# Method: (§1) Analysis of interaction between objective antibody and the FcγR was carried out using Biacore T100 (GE Healthcare). HBS-EP+ (GE Healthcare) was used as the running buffer, and the measurement temperature was set to 25° C. Chips produced by immobilizing the antigen peptide by the amine coupling method to a Series S Sencor Chip CM5 (GE Healthcare), or alternatively, chips produced by allowing preliminarily biotinylated antigen peptides to interact with and immobilize onto a Series S Sensor Chip SA (certified) (GE Healthcare) were used. Antibodies of interest were captured onto an antigen peptide-immobilized chip, and allowed to interact to each FcγR diluted with running buffer. To regenerate and repeatedly use the chip, the antibodies captured on the chip were washed off by reacting 10 mM glycine-HCl, pH 1.5.
# (§2) The FcγR-binding activity of each antibody was assessed primarily using as an indicator the FcγR-binding activity and dissociation constant for FcγR.
row,Binder,He/Con_2b (IIb binding)
1,B1,165 % of GpH7-A5/GpH7-B3/GpL16-k0 (=100)
2,B2,219 % of GpH7-A5/GpH7-B3/GpL16-k0 (=100)
3,B3,78.8 % of GpH7-A5/GpH7-B3/GpL16-k0 (=100)
4,B4,171 % of GpH7-A5/GpH7-B3/GpL16-k0 (=100)
5,B5,177 % of GpH7-A5/GpH7-B3/GpL16-k0 (=100)
6,B6,65.1 % of GpH7-A5/GpH7-B3/GpL16-k0 (=100)
7,B7,199 % of GpH7-A5/GpH7-B3/GpL16-k0 (=100)
8,B8,113 % of GpH7-A5/GpH7-B3/GpL16-k0 (=100)
9,B9,64.4 % of GpH7-A5/GpH7-B3/GpL16-k0 (=100)
10,B10,69.1 % of GpH7-A5/GpH7-B3/GpL16-k0 (=100)
11,B11,139 % of GpH7-A5/GpH7-B3/GpL16-k0 (=100)
12,B12,108 % of GpH7-A5/GpH7-B3/GpL16-k0 (=100)
13,B13,10.4 % of GpH7-A5/GpH7-B3/GpL16-k0 (=100)
14,B14,217 % of GpH7-A5/GpH7-B3/GpL16-k0 (=100)
15,B15,120 % of GpH7-A5/GpH7-B3/GpL16-k0 (=100)
16,B16,124 % of GpH7-A5/GpH7-B3/GpL16-k0 (=100)
17,B17,95.4 % of GpH7-A5/GpH7-B3/GpL16-k0 (=100)
18,B18,200 % of GpH7-A5/GpH7-B3/GpL16-k0 (=100)
19,B19,193 % of GpH7-A5/GpH7-B3/GpL16-k0 (=100)

# Target: T2, FcγRIIIa extracellular domain with C-terminal His tag (human, UniProt P08637 17-208)
# T2 construct: extracellular domain; also called FcgRIIIa; 3a; not shown: His tag attached to the C terminus
# Test: SPR (Biacore), relative binding
# Method: as §1, §2
# T2 sequence (P08637 17-208): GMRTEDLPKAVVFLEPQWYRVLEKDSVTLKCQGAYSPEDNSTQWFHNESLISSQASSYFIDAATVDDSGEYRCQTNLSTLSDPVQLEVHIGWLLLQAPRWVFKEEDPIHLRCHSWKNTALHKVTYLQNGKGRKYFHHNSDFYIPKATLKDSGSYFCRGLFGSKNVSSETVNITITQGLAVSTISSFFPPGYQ
row,Binder,He/Con_3a (IIIa binding)
1,B1,115 % of GpH7-A5/GpH7-B3/GpL16-k0 (=100)
2,B2,79.3 % of GpH7-A5/GpH7-B3/GpL16-k0 (=100)
3,B3,51.2 % of GpH7-A5/GpH7-B3/GpL16-k0 (=100)
4,B4,28.7 % of GpH7-A5/GpH7-B3/GpL16-k0 (=100)
5,B5,65.1 % of GpH7-A5/GpH7-B3/GpL16-k0 (=100)
6,B6,40.5 % of GpH7-A5/GpH7-B3/GpL16-k0 (=100)
7,B7,139 % of GpH7-A5/GpH7-B3/GpL16-k0 (=100)
8,B8,61.1 % of GpH7-A5/GpH7-B3/GpL16-k0 (=100)
9,B9,30.5 % of GpH7-A5/GpH7-B3/GpL16-k0 (=100)
10,B10,31.6 % of GpH7-A5/GpH7-B3/GpL16-k0 (=100)
11,B11,106 % of GpH7-A5/GpH7-B3/GpL16-k0 (=100)
12,B12,73.5 % of GpH7-A5/GpH7-B3/GpL16-k0 (=100)
13,B13,5.2 % of GpH7-A5/GpH7-B3/GpL16-k0 (=100)
14,B14,31.4 % of GpH7-A5/GpH7-B3/GpL16-k0 (=100)
15,B15,93.1 % of GpH7-A5/GpH7-B3/GpL16-k0 (=100)
16,B16,48 % of GpH7-A5/GpH7-B3/GpL16-k0 (=100)
17,B17,56.4 % of GpH7-A5/GpH7-B3/GpL16-k0 (=100)
18,B18,124 % of GpH7-A5/GpH7-B3/GpL16-k0 (=100)
19,B19,134 % of GpH7-A5/GpH7-B3/GpL16-k0 (=100)

# Target: T2, FcγRIIIa extracellular domain with …
# Test: SPR (Biacore); He/Con_3a divided by He/Con_2b (reference: binding to FcγRIIb)
# Method: as §1, §2
row,Binder,He_3a/2b (IIIa/IIb) [ratio]
1,B1,0.7
2,B2,0.36
3,B3,0.65
4,B4,0.17
5,B5,0.37
6,B6,0.62
7,B7,0.7
8,B8,0.54
9,B9,0.47
10,B10,0.46
11,B11,0.76
12,B12,0.68
13,B13,0.5
14,B14,0.14
15,B15,0.77
16,B16,0.39
17,B17,0.59
18,B18,0.62
19,B19,0.69
